Test [1] has as its target T1, ClpXP protease (E. coli ClpX6 with ClpP14) (E. coli, UniProt P0A6H1 1-424; P0A6G7 15-207).
T1 construct: Purified recombinant proteins mixed in the assay; also called SspB-ClpXP (when SspB is added); not shown: N-terminal His6 tag from pET28a; C-terminal His6 tag from pQE70
Kind of test: continuous fluorimetric assay of GFP-tag proteolysis by ClpXP, no SspB.

For test [2], the target named is T1, ClpXP protease (E. coli ClpX6 with …). Briefly: continuous fluorimetric assay of GFP-tag proteolysis by ClpXP, with SspB.
Test [3] shares this target. Briefly: GFP-tag proteolysis by ClpXP in the presence of SspB.
The target is the same in test [4]. Kind of test: kinetic assays with purified peptides and E. coli proteins (GFP-tag proteolysis by ClpXP with SspB).
The target is the same in test [5]. Briefly: kinetic assays with purified peptides and E. coli proteins (GFP-tag proteolysis by ClpXP with SspB); uncompetitive model.
The target is the same in test [6]. Briefly: cell-based or functional assay.
For test [7] the target is unchanged. Kind of test: GFP-tag proteolysis by ClpXP without SspB against with SspB.

Where no end group is shown, it is not given here.

T1 sequence (P0A6H1 whole entry, chain 1 of 2): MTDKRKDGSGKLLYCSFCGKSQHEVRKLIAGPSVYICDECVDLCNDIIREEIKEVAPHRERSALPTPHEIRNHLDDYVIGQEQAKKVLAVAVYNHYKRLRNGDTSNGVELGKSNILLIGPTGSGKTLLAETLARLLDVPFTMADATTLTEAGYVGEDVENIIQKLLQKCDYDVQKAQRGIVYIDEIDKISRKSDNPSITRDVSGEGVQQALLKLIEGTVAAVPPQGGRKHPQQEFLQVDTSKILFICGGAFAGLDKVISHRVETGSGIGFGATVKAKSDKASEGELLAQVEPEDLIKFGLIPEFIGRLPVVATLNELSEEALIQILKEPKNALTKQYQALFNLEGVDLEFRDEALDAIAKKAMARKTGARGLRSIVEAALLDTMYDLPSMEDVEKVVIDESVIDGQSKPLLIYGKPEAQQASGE
T1 sequence (P0A6G7 15-207, chain 2 of 2): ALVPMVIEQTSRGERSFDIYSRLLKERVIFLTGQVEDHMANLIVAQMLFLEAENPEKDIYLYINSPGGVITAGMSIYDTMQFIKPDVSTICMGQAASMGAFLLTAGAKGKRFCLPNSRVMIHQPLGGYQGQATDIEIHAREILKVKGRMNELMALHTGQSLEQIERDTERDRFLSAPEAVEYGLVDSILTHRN

B1: Con62, cyclic SGWPYKWM peptide (peptide)
peptide: SGWPYKWM
modifications: head-to-tail cyclized (cyclic peptide)
notes: Arbitrary cyclic peptide from the SGWX5 library, negative control; also called arbitrary cyclic peptide
As a reminder, the Ki is a dissociation constant, usually derived from enzyme kinetics or from competition with a known ligand. As to B1, the Ki in test [1] was above 1000 µM.
For CRGGRPALRVVK (also: cyclized in vitro, ring type not given here) [cycXB, cyclic XB peptide [CRGGRPALRVVK] (Table 4)], the Ki in test [1] is 6 µM; in test [2], 8 µM; in test [3], 8.1 µM. Besides, in test [3], the “fold lower KI than the linear XB peptide” value was 7 fold.

B2: ICP1, cyclic SGSKGVLPL peptide (peptide)
peptide: SGSKGVLPL
modifications: head-to-tail cyclized (cyclic peptide)
notes: Chemically synthesized linear, circularized and HPLC purified; also called IXP3
B2: the Ki in test [1] was 28 µM; in test [2] it was 25 µM.

B3: linear XB peptide, CRGGRPALRVVK (peptide)
peptide: CRGGRPALRVVK
notes: The text calls XB the 11 C-terminal residues of E. coli SspB; also called linXB
With B3, the inhibitory constant (Ki) in test [1] is above 1000 µM; in test [2], 64 µM; in test [4], 56 µM; in test [3] it was 6.4 µM.
Molecule SGWYGRRH (head-to-tail cyclized (cyclic peptide), also called cyclic IXP1) [IXP1, cyclic SGWYGRRH peptide] displayed a Ki in test [5] of 136 µM. In addition, the “half-life of λ O with ClpXP and 100 µM IXP1” value in test [6] came out at 1.22 h.
On to SGWRVQGPL (head-to-tail cyclized (cyclic peptide), also called IXP4) [ICP2, cyclic SGWRVQGPL peptide], for which the figures for the Ki in test [1] and in test [2] were above 1000 µM and 21 µM, respectively. For the same molecule, the “fold higher KI without SspB” value in test [7] is at least 10 fold.

B4: cyclic XB, RGGRPALRVVK (Table 6) (peptide)
peptide: RGGRPALRVVK
modifications: also: cyclized, ring type not given here
notes: possibly the same preparation as m6; also called cyclic XB peptide
The molecule B4 returned a Ki in test [4] of 8 µM. In addition, the “fold lower KI than the linear XB peptide” value in test [3] turned out to be 7 fold.

(Values after patent US20090143241A1 (PENN STATE RESEARCH FOUNDATION, published 2009).)
